The values that follow come from patent US20210285949A1.

This assay concerns the target human recombinant adrenomedullin receptor (CRLR+RAMP3) (human).

Take “antagonist (human ADM 22-52) (from UniProt P35318) (peptide)”: the IC50 (read off the curve); cAMP HTRF assay, agonist 5.63 nM hADM is 200 nM.
